The source of these data is publication doi:10.1101/2023.05.08.539884.

Where two headings read alike, the source gives them in different places.

Assay [1] addresses UBR4_(4730-5183) (human) (UniProt Q5T4S7). Briefly: ITC.
The target is the same in assay [2]. The assay is described as follows: ITC. The source holds these as a separate data set.

Sequence of UBE2A (P49459 whole entry): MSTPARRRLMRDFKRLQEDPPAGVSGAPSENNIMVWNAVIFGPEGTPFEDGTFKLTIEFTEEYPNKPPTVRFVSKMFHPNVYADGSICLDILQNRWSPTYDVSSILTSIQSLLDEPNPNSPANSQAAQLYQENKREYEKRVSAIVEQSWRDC
Sequence of UBR4_(4730-5183) (human) (Q5T4S7 4730-5183): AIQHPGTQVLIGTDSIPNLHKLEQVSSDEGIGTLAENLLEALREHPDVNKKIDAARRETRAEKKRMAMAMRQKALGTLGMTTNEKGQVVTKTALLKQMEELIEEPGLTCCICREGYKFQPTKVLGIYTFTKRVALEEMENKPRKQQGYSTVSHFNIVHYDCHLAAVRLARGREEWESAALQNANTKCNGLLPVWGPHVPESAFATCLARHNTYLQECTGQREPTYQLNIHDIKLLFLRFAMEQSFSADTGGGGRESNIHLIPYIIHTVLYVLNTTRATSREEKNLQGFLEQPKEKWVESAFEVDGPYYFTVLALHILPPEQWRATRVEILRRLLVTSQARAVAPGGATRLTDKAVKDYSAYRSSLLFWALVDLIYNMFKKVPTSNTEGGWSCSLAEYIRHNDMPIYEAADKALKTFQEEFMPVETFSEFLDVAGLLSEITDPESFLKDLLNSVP

Turning to “UBE2A (from UniProt P49459 1-152) (enzyme)”, the stoichiometry N with UBR4_(4730-5183) (human) [1] turned out to be 1. For the same substance, in the assay with UBR4_(4730-5183) (human) [2], the dH was -7.37 kcal/mol and the stoichiometry N came out at 0.904.
